In assay [1] the target is T1, rPfRH5M, recombinant receptor binding fragment of PfRH5 encoded by the most prevalent haplotype rh5h1 (Y203) (Plasmodium falciparum, UniProt Q8IFM5 35-222, C203Y).
T1 construct: PfRH5, Plasmodium falciparum, field-isolate haplotype rh5h1, which differs from the Pf3D7 allele by C203Y; 188 aa, Glutamine-35 to Serine-222, amplified from DNA of an infected blood sample; Cloned BamHI/HindIII into pET-20b(+); also called PfRH5_(variant); Y203 allele; source: E. coli BL21 (DE3), purified (Ni-NTA)
T1 sequence (looked up): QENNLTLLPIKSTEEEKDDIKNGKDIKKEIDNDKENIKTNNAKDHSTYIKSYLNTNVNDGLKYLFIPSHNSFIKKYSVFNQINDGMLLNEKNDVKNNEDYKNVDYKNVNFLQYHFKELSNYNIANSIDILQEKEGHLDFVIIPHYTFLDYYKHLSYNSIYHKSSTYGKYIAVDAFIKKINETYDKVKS
The assay can be described thus: ITC; BSG injected drop by drop (1 min intervals) into the cell holding PfRH5_(3D7) or PfRH5M; BSG 10 times more concentrated than PfRH5; 25 °C; 0.1 M phosphate buffer, pH 7.0, Dulbecco PBS pH 7.4 in the reference cell (methods); PBS-BSG titration subtracted; fit to one set of binding sites. The following applies: both partners purified.

Assay [2] addresses T2, rPfRH5_(3D7), recombinant receptor binding fragment of P. falciparum reticulocyte binding protein-like … (Plasmodium falciparum, UniProt Q8IFM5 35-222).
T2 construct: made by site-directed mutagenesis (Y203 to C) of the field-isolate clone rPfRH5M-pET-20b; Cloned BamHI/HindIII into pET-20b(+); also called C203 allele; source: E. coli BL21 (DE3), purified (Ni-NTA)
T2 sequence: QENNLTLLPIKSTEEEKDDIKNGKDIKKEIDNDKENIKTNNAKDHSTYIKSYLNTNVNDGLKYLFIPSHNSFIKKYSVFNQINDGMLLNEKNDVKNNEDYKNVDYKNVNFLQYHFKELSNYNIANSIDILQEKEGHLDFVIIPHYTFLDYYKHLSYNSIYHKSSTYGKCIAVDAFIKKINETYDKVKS
Described as above. Conditions: both partners purified.

B1: basigin (BSG) (receptor)
chain: AAGTVFTTVEDLGSKILLTCSLNDSATEVTGHRWLKGGVVLKEDALPGQKTEFKVDSDDQWGEYSCVFLPEPMGTANIQLHGPPRVKAVKSSEHINEGETAMLVCKSESVPPVTDWAWYKITDSEDKALMNGSESRFFVSSSQGRSELHIENLNMEADPGQYRCNGTSSKGSDQAIITLRVRSHLAAL
With B1, the Ka in assay [1] stood at 3.63e+06 M⁻¹; in assay [2] it was 1.31e+06 M⁻¹.

The record behind these values is article PMC7557104, “Population genetic and biophysical evidences reveal that purifying selection shapes the genetic landscape of Plasmodium falciparum RH ligands in Chhattisgarh and West Bengal, India” (Malaria Journal, 2020).
